Data taken from patent US12460006B2, “Antibodies against integrin alpha 11 beta 1” (Momenta Pharmaceuticals, Inc., priority 2019, dated 2025).
Where a chain is given by its changes, count along the chain named.

T1: α11β1 I Domain (Homo sapiens, UniProt Q9UKX5)
T1 sequence (Q9UKX5 164-345 limits assumed): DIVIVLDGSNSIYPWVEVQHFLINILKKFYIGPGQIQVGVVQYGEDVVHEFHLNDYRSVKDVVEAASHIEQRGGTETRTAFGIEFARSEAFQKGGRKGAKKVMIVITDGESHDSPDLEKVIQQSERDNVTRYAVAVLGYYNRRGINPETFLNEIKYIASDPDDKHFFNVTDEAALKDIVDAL

B1: 1994_01_C07: fully human anti-α11β1 mAb (phage display); HCDR3 SEQ ID NO: 267, LCDR3 SEQ ID NO: 271 (antibody, V domains shown)
VH: QVQLVQSGAEVKKPGASVKVSCKASGYTFTSYGISWVRQAPGQGLEWMGWISAYNGNTNYAQKLQGRVTMTTDTSTSTAYMELRSLRSDDTAAYYCARVTGITGTTIDPWGQGTMVTVSS
VL: DIQMTQSPSSLSASVGDRVTITCRASQSISSYLNWYQQKPGKAPKLLIYDASSLESGVPSRFSGSGSGTEFTLTISSLQPDDFAVYYCQQYNNWPQTFGQGTKVEIK
B2: 1994_01_D12: fully human anti-α11β1 mAb (phage display); HCDR3 SEQ ID NO: 267, LCDR3 SEQ ID NO: 334 (antibody, V domains shown)
VH: B1 VH with A16S, D73N, A93V, M115L
VL: DIQMTQSPSSLSASVGDRVTITCRASQSISSYLNWYRQKPGKAPKLLIYAASSLQSGVPSRFSGSGSGTDFTLTISSLQPEDAATYYCQQYDSQSGTFGQGTKLEIK

Legend:
[1] = tested on: CHO-K1 cells expressing human α11; assay: Cell adhesion inhibition (xCelligence), type I collagen; format: cell-based; details: CHO-K1 hu α11 cells; read-out: IC50 of blocking cell adhesion to type I collagen
Method: 0.6×10^6 cells/mL were incubated with each antibody at a range of concentrations for 20 minutes at 37° C. E-Plate VIEW 96 PET plate coated with 100 ng/mL type I collagen or PBS overnight at room temperature was blocked in 3% BSA for 1 house at room temperature. After washing the plate with PBS, cell and antibody mixture was added to the wells and the plate was places into an xCelligence machine. Cell adhesion was recorded over 6 hours. The time point of maximum cell adhesion was used for comparison relative to control.
A CHO-K1 hu α11 cell line was used to assess the ability of mAbs to block α11β1-mediated binding to type I collagen. […] In the “Untreated” condition, cells were plated on type I collagen but no antibody was added and in the “Uncoated” condition, cells were seeded onto BSA-coated wells containing no type I collagen. Statistics were performed using one-way ANOVA followed by Dunnett's multiple comparisons test. […] Therefore, it is possible that these mAbs bind on an α11β1 domain that keeps the integrin in a low or intermediate affinity state. […] Nine human mAbs were also tested for their ability to inhibit the binding of human CHO-α11 cells to type I collagen.

[2] = tested on: CHO cell lines expressing α11; assay: Collagen gel contraction assay; format: cell-based, human; details: vs untreated
Method: 24-well plates were blocked with 2% BSA in PBS overnight at 37° C. The following day, the plates were washed 3 times with PBS before being used in the assay. Human CHO cell lines expressing α11 were harvested and resuspended at 1.25×10^6 in ExpiCHO Expression Medium (Gibco™ Cat #A2910002). The collagen gel solution was prepared by diluting 3 mg/mL stock collagen type I (Gibco™ Collagen I Rat Protein, Tail Cat #A1048301) to 1 mg/mL in the media containing the CHO cells. Sodium hydroxide was added to the solution to neutralize the pH and 400 μL of the collagen solution was added to each well of the 24-well plates. For the wells where the antibodies were included in the collagen gel solution, CHO cells were prepared at 2.5×10^6 and the antibodies were prepared at 2× final concentration in ExpiCHO media. The cells and antibodies were then combined 1:1 before the addition of the stock collagen type 1. The gels were allowed to polymerize for 60 minutes at 37° C. Antibodies were added to the ExpiCHO media, which was then layered on top of the polymerized gel (400 μL/well). The gels were incubated for 6 days at 37° C. before gel contraction was quantified. Images of each well were analyzed using Image J and gel contraction was determined as a percentage of the initial gel area.
Selected exemplary antibodies were tested for the ability to inhibit cell-mediated 3D gel contraction because this ability is directly linked to the functionality of the exemplary antibodies.

α11β1 I Domain = biological target: T1, α11β1 I Domain; assay: SPR binding to α11β1 I Domain; details: SPR data
Method: (§1) The affinity of antibodies for human α11β1 was measured by surface plasmon resonance assay (SPR). Affinity was measured at pH 7.6 and 25° C. with a Biacore T200 instrument. Anti-HIS antibody was immobilized on the SPR sensor surface using EDC/NHS covalent attachment. HIS-tagged human α11β1 was captured on the sensor surface and a single-cycle kinetics assay was used. Increasing concentrations of test antibody were injected in series over the sensor-bound α11β1. Dissociation was monitored for 1000 seconds. A sensor surface with only anti-HIS antibody and a series of blank injections were used to double-reference subtract the data. A 1:1 Langmuir model was fit to the data to estimate the kinetic association and dissociation constants. The affinity (equilibrium dissociation constant) of the interaction was calculated by dividing the kinetic dissociation constant by the kinetic association constant. Between injection cycles α11β1 and bound antibody were removed with an injection of 10 mM glycine at pH 1.5.
(§2) The binding affinity of antibodies for the α11β1 Headpiece and α11β1 I Domain as measured by SPR is shown in FIG. 10A and FIG. 10B, respectively.

α11β1 Headpiece = assay: SPR binding to α11β1 Headpiece; design: species or system human; details: SPR data
Method: as §1, §2

Molecule | IC50 [1] | inhibition of CHO-hu α11-mediated collagen gel contraction [2] | binding to the I domain of α11β1 (α11β1 I Domain) | binding to the headpiece domain of α11β1 (α11β1 Headpiece)
B1 | 3.3 nM | inhibited CHO-hu α11-mediated collagen gel contraction | do not bind | do not bind
B2 | – | inhibited CHO-hu α11-mediated collagen gel contraction | – | –
